The values that follow come from the supplement of paper PMC10126150.

± gives the standard deviation of the averaged measurements.
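Further: ATP exposure 15 min at 22 °C before imaging.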

The data set has as its system ATP. Briefly: switch fluorescence ratio, 500 uM ATP over buffer (Cy3 cluster intensity, sum of 5 cycles each) (fold (ratio)); higher = stronger signal-on switching upon ATP binding; sequences stand for … in TCGTCGGCAGCGTCAGATGTGTATAAGAGACAGTTTTTTTTTTTTTTTTTTTTTTTTT…TC. The following applies: aptamer strand: ATP DNA aptamer (quencher-CACCTGGGGGAGTATTGCGGAGGAAGG + anchor), 100 nM annealed; ATP concentration: 500 uM. A digest of the protocol: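 Imaging in selection buffer was followed by imaging after 15 min with 500 uM ATP at 22 °C, for Cy3-labelled switching-strand clusters annealed to 100 nM quencher-labelled ATP aptamer on a modified Illumina MiSeq flow-cell. Five of these buffer/ATP cycles ran, separated by NaOH stripping and re-annealing. The fluorescence ratio per cluster is summed target-cycle over summed buffer-cycle Cy3 intensity, averaged per switch-domain sequence; clusters outside 100-1000 RFU were removed.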
Regarding CCAGCAGGTA, the switch fluorescence ratio turned out to be 1.13 ± 0.064.
The value for CTATAATAGG was 0.961 ± 0.01.
The value for TAATAAGAGA was 0.985 ± 0.015; that for AAGTAGAATT was 1.015 ± 0.0045; that for TTATTTTTTG was 1 ± 0.056.
The value for AAAAGGGGAT was 0.997 ± 0.036; that for TATTGGGTGT was 1.034 ± 0.0014.
Take TCAATGTGGT: the switch fluorescence ratio came out at 1.016 ± 0.008.
As for TATTCCAATA, the switch fluorescence ratio stood at 0.995 ± 0.03.
The value for TGCAAGGGGC was 1.04 ± 0.04; that for GCGGGTCAAA was 0.9883 ± 0.0093.
The value for GGGAGTATGG was 0.977 ± 0.027; that for TGGGTTGTGG was 1.01 ± 0.053.
With CGTTATTTAT, the switch fluorescence ratio was determined as 0.9985 ± 0.0089.
The value for CAAGGGGTGG was 0.996 ± 0.019; that for GTATGTACTG was 1.04 ± 0.04; that for AGGGTCGCTG was 1.016 ± 0.0011.
The value for TGTTATACGT was 1.02 ± 0.019; that for CATTGGTTGT was 0.927 ± 0.025; that for TCAGACATCG was 1.01 ± 0.035.
The value for GTTGTAGGTG was 1.057 ± 0.0014; that for CATATGCGTC was 1.02 ± 0.035; that for TATTGTACTC was 1.03 ± 0.018.
Turning to GGGGCATTAT, the switch fluorescence ratio came to 1.06 ± 0.074.
The value for CGGCTGGTTC was 0.98 ± 0.04; that for CCTGGGAAGA was 1.02 ± 0.017; that for ATTAGAGGTT was 0.9898 ± 0.0094.
The value for GGAATGGAAC was 1.01 ± 0.024; that for ATATTTTAAC was 1 ± 0.012.
With GGCTATTTAA, the switch fluorescence ratio is 1.002 ± 0.0063.
The value for TAGTTGAGTT was 0.982 ± 0.029; that for TCAAAGGTAC was 1.04 ± 0.0092; that for TGTGATGGTT was 1.005 ± 0.0013.
The value for GGGGGTAGTA was 1.01 ± 0.044.
The value for TTTCTCAGTT was 0.977 ± 0.02.
For CGGGGAAGGG, the switch fluorescence ratio came to 1.005 ± 0.0032.
Take GGTGACACAG: the switch fluorescence ratio was 0.988 ± 0.017.
In the case of TTGGGTCGGC, the switch fluorescence ratio was 1.0032 ± 0.001.
The value for GCTATCGGGA was 1.01 ± 0.037.
Consider TGGGGTTAGG, for which the switch fluorescence ratio is 1 ± 0.024.
The value for GAAGCGGGGG was 1.05 ± 0.02; that for TAATAGCATA was 1.03 ± 0.033.
The value for TCGTTATTCG was 0.979 ± 0.021; that for AATGAACATG was 0.978 ± 0.037.
The value for CGGGCTTCCT was 1.21 ± 0.22.
Consider CCAGGGGGCA, for which the switch fluorescence ratio amounted to 1.13 ± 0.14.
As for CTCGCGAATT, the switch fluorescence ratio was determined as 1.55 ± 0.49.
Take TGTTTCTCTG: the switch fluorescence ratio worked out at 1.01 ± 0.023.
The value for CTTTTTATGG was 1.03 ± 0.033.
Consider TGACATCTA, for which the switch fluorescence ratio turned out to be 1.07 ± 0.057.
The value for ACCTTGTATA was 0.971 ± 0.022; that for AGGACGGGAT was 1.06 ± 0.056.
Consider CGGGTGAGCA, for which the switch fluorescence ratio came out at 0.996 ± 0.026.
The value for CTGTATGGGT was 0.9978 ± 0.0094.
The value for TATGGTTTTC was 1.01 ± 0.084; that for CCTGATTTGA was 0.989 ± 0.02; that for ATATATGGTG was 1.05 ± 0.02.
The value for TTGTAGGTTT was 1.58 ± 0.79; that for TTTTTATCAG was 0.977 ± 0.038.
On to TTAAAAATCG, for which the switch fluorescence ratio amounted to 1.02 ± 0.037.
The value for AGGGGCGTGG was 1.01 ± 0.046; that for TGGGTCATTG was 0.973 ± 0.043; that for GCTCGGGGTC was 0.978 ± 0.062.
The value for GGGGGGAAGA was 0.994 ± 0.025; that for TCAGTGGGTT was 0.9968 ± 0.0089; that for AAATTTAGTA was 0.99 ± 0.018.
The value for TGAATATTAA was 0.985 ± 0.025.
Turning to TGGTTCAGGG, the switch fluorescence ratio amounted to 0.997 ± 0.04.
The value for TTGAGAGGGA was 0.99 ± 0.019.
The value for TTTGACCGGA was 1.02 ± 0.072.
The value for CTAGGGGACG was 1.03 ± 0.032.
As to GTTTGCGGCA, the switch fluorescence ratio was 1.01 ± 0.027.
As for AGAGCCCTTA, the switch fluorescence ratio is 1.01 ± 0.014.
In the case of AGCACGCTGG, the switch fluorescence ratio was 1.029 ± 0.0042.
The value for ATGTTGTTAC was 1.01 ± 0.025.
The value for TGGAAAGGAG was 1.02 ± 0.013; that for TTGTTTAATT was 0.979 ± 0.022; that for AATTGGGTAA was 1.025 ± 0.0083.
For the sequence ACCTGGATTG, the switch fluorescence ratio came to 1.03 ± 0.017.
